Data on 50 sequences can be found in the domain aggregation screens of Martell et al. (2025).

The data set can be described thus: soluble fraction after stress (log2 fold change); higher = more stays soluble; pooled small domains, quantitative proteomics. To be noted: stress: 50 degC. The essentials:
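Custom libraries of small protein domains were pooled and measured in a high-throughput format, with quantitative proteomics as the read-out. Each library was stressed at 50°C. The value is the log2 fold change in the amount of each protein that stays soluble after stress, used as a measure of aggregation propensity; higher values mean more of the protein stays soluble.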
As to “HMGSTDTLEDALEAAEKISYPVIIKATAGGGGRGMKVASSLEELKKVYHTTKLEAKNAFGNDQVYIEKYL”, the “soluble fraction (log2)” value amounted to 0.116.
For the sequence “HMGSTYGISRVDNETSRTHGWLVTIQRRGVIYRKHFSDGVFGGKQRSFAAAKEYRDEVIAAHP”, the “soluble fraction (log2)” value was -0.672.
As for “HMGSVVATLRKLIIDGHYPAGTRLAEIPVANALGVSRTPVRLAFRTLQQEGLLQTVGKRGIVVRAF”, the figure is -1.21; as for “HMGSWDDFFNAIRLDNPNTLQALLQRGFDPNTVDQQGTPALMRALQEQSYRAAEVLADHPQI”, -0.459; as for “HMGTAGLSPWHKIAVLMIALGPEGASELMRHFGEDEVEQVVQAIADLKNVPSELQDAVLLEMEGALQEG”, -0.00851.
For the sequence “HMGTDVFIMTGGTRKRGATWSYYFDLGKIDGKRQKKEKGGFKTKKEAETALAKAINEYNNAGA”, the “soluble fraction (log2)” value is -0.0903.
With “HMGTFIATVEANSLDIYKSMSSNETIGKANKGEVFQILEDMGSGYARVSYNDVEGYLSIRDGDATIEE”, the “soluble fraction (log2)” value is -0.356.
Take “HMGTGADQVSWKTGDKVTHKKWGEGTVVKVSGSGNDKELDIAFPQQGVKRLLASFAPIKKVT”: the “soluble fraction (log2)” value is 0.168.
For “HMGTGQTNEKLAVLTNIQKTQEQILLTLGAKNPLVNLKQYRETLAKILSLSGYKNSNEFFLDPM”, the “soluble fraction (log2)” value is -0.0851.
As to “HMGTGTYQVWSANGLGVRMRSGPGTGYRILAVYSVGTSVTVLQKGAYWSYIRVGSRTGYMMNQFLVSG”, the “soluble fraction (log2)” value was determined as 0.139.
“HMGTGVEQGKQYRTLKRDFDGASGIKVNGDFYRLRTSDTGMTELPAGTEVTFERFDGTTAVVHT”: the “soluble fraction (log2)” value was -0.0841.
For “HMGTHPGIDSGIISDILALKKELPTRSAAKIITMLTLAGKMEENSIHVKTVNRILYQYGYTRDTLS”, the “soluble fraction (log2)” value was -1.88.
With “HMGTITKRTNPSGAVVWRAQIRINKADMPTYSESKTFSKKSLATEWLKRREAEIEANPDLIL”, the “soluble fraction (log2)” value is -0.348.
For “HMGTKDVNAAPSAVGRTYDEAIEILNGYKAGYLEEYSDTVPKGTVISQSVQDGQVVIVVSLGPKPS”, the “soluble fraction (log2)” value amounted to 0.0391.
On to “HMGTKVGAPLPGTITEVKVKVGDTVKAGDAVIILEAMKMQNNIEAEVSGTVSSVLVKEGDTVMEGDALITI”, for which the “soluble fraction (log2)” value turned out to be 0.144.
Take “HMGTLNLSQAYREWGMAEIEANRDYYGPVRFDDIAFQMSPAGQQLQARFVASYADRLHDAIEGEL”: the “soluble fraction (log2)” value is -0.304.
On to “HMGTLRPKGTVVFANLPIAADAKEGDMYNISDQFTTTASFKEGAGNVIPAGSNVYRTDDGFWDVL”, for which the “soluble fraction (log2)” value is 0.00637.
Take “HMGTPEQSAQFEQVLEELKNVPGPVMKAMQRAQDIYGYLPIEIQSRIGQAFGVSLEEVYGIATFYSQFNL”: the “soluble fraction (log2)” value is -1.68.
In the case of “HMGTQKVQVVNGPINVRSGPGPTFEKIGMVEDQAVYQVVSKKDDWFQISLPGNKTAWVAGWLVKEIK”, the “soluble fraction (log2)” value amounted to 0.0417.
As for “HMGTRHPLPYAFAKAHTVLLEDDGDRLLLHAAENSGPSALGEILRLYDVDALERETASTLANRIAVAYAG”, the “soluble fraction (log2)” value came to 0.00932.
Consider “HMGTSGLTIPRFVSLASGTVHMRAGPGVRYPITWIYKRLGTPLMVMAEHEFWRKVRDAEGTEGWMHRSLLS”, for which the “soluble fraction (log2)” value was -0.0684.
Take “HMGTSIMIIIVKPETKKERVNDLIHWIESQNLRTHLSTGDYSTIIGVIGDTSKLDSELIRGLDIVENVKRV”: the “soluble fraction (log2)” value was -0.318.
Take “HMGTSMDPPVIIVSDGKLIQKGLEVSGLKKQWLYDLIDRKHMKISDIFLLTADKTGKYNLIKRS”: the “soluble fraction (log2)” value was 0.0904.
As for “HMGTSQSAVKAILAQLISDENKQKPYSDEALSRLLQQQGIDIARRTVAKYREALNIPPAHQRK”, the “soluble fraction (log2)” value was found to be 0.101.
With “HMGTSRVQSILFDQSQWTINRAVHWLNTHHFISTKIDKTDKYLRFRQFDPNPDSHHATKRTSQGITFILE”, the “soluble fraction (log2)” value is -3.51.
As to “HMGTTIAMSKLKQVLRWKEEGYSNRKIAQLVGLNKETVNNYISRANADSLSQKELLQLDDFVLDIRLRG”, the “soluble fraction (log2)” value is -1.32.
Take “HMGTTTGKVNATGVNFRTGPSTSYSSMGKLGIDTAVTILGKSGDWYQVKVNSTGKTGYVFAKYITITSVV”: the “soluble fraction (log2)” value was -0.0946.
Consider “HMGTVIGMGRITAGGVNFRETEGGGVIEKLERDTLVEVLTVPSVIDTTHWYQVRYNNRTGYVQAPFVQLLG”, for which the “soluble fraction (log2)” value was -0.0951.
For “HMGTVKWFNATKGFGFIVPSDGGKDVFVHITAVQKAGLQGLNEGQKVSYEVAMERGKAAATNLR”, the “soluble fraction (log2)” value was -0.726.
For “HMGTVRFYNKERGFGFVVSDDGESVFLPAKALPDGVSDLSPGTRVDYGAALGKKGSQ”, the “soluble fraction (log2)” value was 0.153.
For the sequence “HMGVAAPMPGTITDVRVKVGDRVQPRTVVMMLEAMKMENEIFAGRAGVVSQVAVEKGASVNTGDLLISIDP”, the “soluble fraction (log2)” value was determined as 0.129.
With “HMGVAASEVHREKKESSLQWRQSYNVATDQRRQGKTYKEITEFLNGAELKNSKGGTWSISGVRKMLM”, the “soluble fraction (log2)” value is 0.271.
In the case of “HMGVARGQAQVTTRQHVVQPGETLYQISKQYGVTVAEILRYNADIEDNTVKVGQTLQIPTPLP”, the “soluble fraction (log2)” value is no less than 0.62.
With “HMGVDMAPESIVGKKGVAATELRPAGKVEIHGQVYDAVSVGMFIKRGTGVKVVRYEAAQIYVEPE” the figure was 0.146; with “HMGVEALTPRQREVLALMAQGRSNGWIAAELGLSEKAIVQHTSNIYDMLGLAVDADDHRRVLAVIHYLT”, -1.25.
With “HMGVENDGYVLPRELKKGDTVLIADLGKEATVLSPVDRNGNVEVLAGAAKTRVKLKNLRLIE” the figure was 0.13; with “HMGVEVPRGDGSTVVRVRAGSSLADFAERIGADPAALITVLFRMGEMATVNQSLDEDTFKLLGAELGYDVQ”, -0.691.
On to “HMGVGIAEAMKHVADEDYGDLSSEFQRIFSAVDGGSTLGDAVRAQMRATSSAGLRRTLSVLAMSVE”, for which the “soluble fraction (log2)” value was found to be 0.208.
For “HMGVGTTDERLAVLNQIASRQTEALEKLGPNNPLVGLGQIRNTLSKMLEISGYPDSNQFFKQVPLDYEPPP”, the “soluble fraction (log2)” value was 0.173.
For “HMGVIDTLSGPQKAAAILVAIGRPSASRLLKHFNAEDLRKLAGHARTLEPISPLDFEHLVKQFEDSFAEG”, the “soluble fraction (log2)” value was -0.798.
In the case of “HMGVIGADIRALRVSRGWTLSDLAEALDRSVGWLSQVERDVSEPALADIRRIAGIFDLPVSFFFSD”, the “soluble fraction (log2)” value was -2.86.
In the case of “HMGVLDFSAQLLKHLEMNGGQTPLGDKSPAEEIYAVFGVSKKVFKKAVGDLYRKRLIEISSNGIRMTS”, the “soluble fraction (log2)” value is -0.968.
On to “HMGVLGVDALAAAAEVSVDTVRYYQHLGLLEPPRREGRRAVYGPSHLARMGEIRRLAAAGFTLDQIRQLAE”, for which the “soluble fraction (log2)” value was -2.1.
As for “HMGVPTEQQSLIGKSGIAATDLRPSGKVEIDGKRYDAVSNYAGFIAKGTPISVVRYETGQIYVE”, the figure is 0.0415.
“HMGYDDVIVINGKNETYGFPTKVEDDPVLSLVIKGDRSIDYAEERRLFYVAMTRTKNRVFFVAP”: the “soluble fraction (log2)” value was found to be 0.0138.
For the sequence “HMGYGEQEAEATKYMSLHAIMSADETLSKMYTPENQHKLMTHVMEQNGIKNVKDYLTPPSELP”, the “soluble fraction (log2)” value is -0.102.
With “HMGYPYDTVTTAKVNLRAKRSTSSDILKKIPEGATVTVKGVTGTFASVDYNGTSGYVKVDYLV”, the “soluble fraction (log2)” value worked out at 0.069.
Take “HMGYSSKISELLTKYNMNASELAQKVGVPPTTIYSIIKRDSKKADIEVLIKIAKLFNVPVEYF”: the “soluble fraction (log2)” value is -0.99.
“HMGYTPGVVIQKSAILEEINQPDLALGMMLEAVKKDSQNLDILNRLVTLLIDQKKNEDAEIYNKKIIT”: the “soluble fraction (log2)” value was determined as 0.0254.
With “HMHAGMKSWTIQYEKSPIYGSFLMYKDGNIYIQKEDNVVVHFPLDRFSQNDQAILKSRIEKIDQINKSS” the figure was -0.0347.
